Measurements as given in article PMC5830531.

What was measured:
Assay in all cases: EMSA
[1] = system: MBP-A3H m1 monomer (Homo sapiens (haplotype II)); conditions: EMSA: 50 mM HEPES pH 7.5, 250 mM NaCl, 1 mM DTT, 2.5 mM EDTA, 10% glycerol, on ice 10 min, protein up to 8 uM, 8% native PAGE
[2] = system: MBP-A3H m1+W115A/C116S monomer (Homo sapiens (haplotype II)); conditions: EMSA: 50 mM HEPES pH 7.5, 250 mM NaCl, 1 mM DTT, 2.5 mM EDTA, 10% glycerol, on ice 10 min, protein up to 8 uM, 8% native PAGE
[3] = system: MBP-A3H m1+H114A monomer (Homo sapiens (haplotype II)); conditions: EMSA: 50 mM HEPES pH 7.5, 250 mM NaCl, 1 mM DTT, 2.5 mM EDTA, 10% glycerol; on ice 10 min; protein up to 8 uM; 1 nM RNA or 10 nM DNA; 8% native PAGE; n=3 …
[4] = smeared bands, approximate, 1 nM RNA or 10 nM …, n=3, Table

8 nt ssDNA showed a Kd [1, 4] of 983 nM and a Kd [2, 4] of 2960 nM.

13 nt ssDNA gave a Kd ([1]; approximate estimate, monomer assigned from the monomer comparison, 1 nM RNA or 10 nM DNA, n=3 …) of 272 nM and a Kd ([2]; approximate estimate, 1 nM RNA or 10 nM DNA, n=3 …) of 497 nM.

For 50 nt ssRNA, the Kd ([1]; 1 nM RNA or 10 nM DNA, n=3 …) was 8 nM, the Kd [3] was 34 nM and the Kd ([2]; 1 nM RNA or 10 nM DNA, n=3 …) was 12 nM.
